Reference: the supplement of paper PMC9170038

Tested on: MS2 coat protein
Assay: apparent KD of MS2 coat protein; designed switch direction (-1 OFF switch, 1 ON switch): 1; higher = weaker reporter binding
Procedure, shortened: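 Designed RNA switches with common flanks were transcribed on Illumina chips by stalled E. coli RNA polymerase and titrated with SNAP-549-labelled MS2 coat protein, from 0.7 or 1.5 nM doubling to 3 µM, in Tris-HCl pH 7.5 buffer with KCl, MgCl2, BSA, DTT, tRNA and Tween-20. Steps lasted 0.8–1.5 h (lowest) to 10–20 min (highest). Titrations ran without input, with 200 uM small-molecule ligand, or with an oligonucleotide input. Normalised cluster fluorescence was curve-fitted, and apparent KD is the per-design median over clusters.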

[1] = Eterna round: R95, input ligand: FMN 200 uM
[2] = Eterna round: R95, input ligand: microRNA oligo, concentration not stated
[3] = Eterna round: R95, input ligand: none
[4] = input ligand: microRNA oligo, concentration not stated

Sequence	apparent KD of MS2 coat protein [1]	apparent KD of MS2 coat protein [2]	apparent KD of MS2 coat protein [3]	apparent KD of MS2 coat protein (input ligand: FMN 200 uM)	apparent KD of MS2 coat protein [4]	apparent KD of MS2 coat protein (input ligand: none)
GUUAAACAUGAGGAUCACCCAUGUCAAUGUAGUCGAGGAUAUGGGCAGCUAUGAGGCGUACUAGAAGGCGAAGAGU [Mat - Same State 1 - Mod of JL - D12] (puzzle: Same State 1)	106 nM	196 nM	280 nM	–	–	–
GCUCGCACGAUGACCCACAUGAGGAUCACCCAUGUGCGUGGGCAGGAUAUCUAGAUUAAGGAUGUAGAGAAGGGUUGAGCGAGC [SameState NG3 #25] (Eterna round: R96, puzzle: Same State NG 3)	–	–	–	555 nM	136 nM	302 nM
AGUCCAGCAUGAGCUGGACAAAAGCAUGUACAUGAGGAUCACCCAUGUUCAUGUACAAGCUUUUUGCUCGUCUUAAA [Mat - hsa-mir-208a - Mod of JL - 45] (puzzle: Sensor for hsa-mir-208a)	807 nM	17.5 nM	562 nM	–	–	–
UCUUGGUUUUUGCUCGUUUUUUGUGUUGAACAUGAGGAUCACCCAUGUAUUGUACGGUCCGAUUUGAUAGUGGUCCG [JMF 20] (puzzle: Sensor for hsa-mir-208a)	26.1 nM	15.7 nM	27 nM	–	–	–
AUAAAACAUGAGGAUCACCCAUGUCAACAAAGUCGAGGAUAUGGGCAAAGAAAAUAAUAACCAGAAGGCGAAUAAU [salish99_ss1_r3_054] (puzzle: Same State 1)	42.6 nM	389 nM	445 nM	–	–	–
UUUAGUUGCGCGCAGGAUAUGUAUUAAUAUACAUGAGGAUCACCCAUGUGAGACCAAAUAGGUCUGCAGAAGGGCGAAUCGCGAC [Laonerce - 28] (puzzle: Same State 2)	45.4 nM	139 nM	199 nM	–	–	–
GCUCGAUGUGUUGUCUACAUGAGGAUCACCCAUGUAGGUGCGGAGGAUAUCUACGUGCUUUAUGUAGAGAAGGUCGUAUCGAGC [SameState NG3 #86] (Eterna round: R96, puzzle: Same State NG 3)	–	–	–	21.5 nM	54.3 nM	71.4 nM
ACAAAGAACACAGGAUAUCGGAAAGGAAGUGUACGAGAAGGGUGGUCAACAGUACAUGAGGAUCACCCAUGUGGUGGAUGGCAA [PowerStrip SSNG 1.12] (Eterna round: R96, puzzle: Same State NG 1)	–	–	–	177 nM	2.42 nM	1440 nM
UUUAAACAUGAGGAUCACCCAUGUCAACAAAGUCGAGGAUAUGGGCAAAUAAAAUAAGAACCAGAAGGCGAAUAAU [salish99_ss1_r3_068] (puzzle: Same State 1)	49.2 nM	585 nM	334 nM	–	–	–
AAAGUACAUGAGGAUCACCCAUGUCCCAAUGAAUAAGGAUAUACGAAAAUAAAAUAAAAUGUAGAAGGUAUAAUAG [Same State 1 #1] (puzzle: Same State 1)	–	30.5 nM	–	–	–	–
AACAAUCUAUCUGAGGAUAUCAUGAAAUAAACAUGAGGAUCACCCAUGUGCAGGAAAACUGCAUAUGAGAAGGCUGAUAGAUUGA [salish99_ss2_r3_051] (puzzle: Same State 2)	78 nM	574 nM	5350 nM	–	–	–
GUUACAUGAGGAUCACCCAUGUGUGUGUGGGAGUGAGUGGCUUAGGAUAUCUAUGAUUUUAGUUAAGAGAAGGAGGAUUGCUGU [SS-NG3-LRO07] (Eterna round: R96, puzzle: Same State NG 3)	–	–	–	275 nM	267 nM	414 nM
AGGCUCAGACGAGGAUAUGAUCAUGGCGCUUCGGCGCAUACAUGAGGAUCACCCAUGUAAAGUGAUCAGAAGGUGUCUGAGCCA [SSNG2/7-B1] (Eterna round: R96, puzzle: Same State NG 2)	–	–	–	13.9 nM	11 nM	16.1 nM
UAGUUACUAUCUCAGGAUAUCAUGUCAAAGACAUGAGGAUCACCCAUGUACCAGGAAACUGGUUAUGAGAAGGGAGAUAGUAACA [Mat - Same State 2 - Mod - D56] (puzzle: Same State 2)	78.7 nM	34.2 nM	38.6 nM	–	–	–
UCUGAUGCCGUAGGAUAUCUAGGAUAUGGACGAGGAUCACCCGAGCAGCAUCAGCGCACCAGAGGAGAGAAGGACGCUUUGGAA [pwkr ssNG2 2F5 2FMN.21] (Eterna round: R96, puzzle: Same State NG 2)	–	–	–	438 nM	274 nM	1190 nM
AUAAAACAUGAGGAUCACCCAUGUCUACAAAGUCGAGGAUAUGGGCAAAUAAUAUAAGAACCAGAAGGCGAAUAAU [SS1 Teenbexe 1] (puzzle: Same State 1)	54.2 nM	565 nM	14400 nM	–	–	–
